{"source": "the nanobody polyreactivity screen of Harvey et al. (2022)", "data": [{"assay": "yeast display, Sf9 membrane polyspecificity reagent, FACS + sequencing; frameworks hold sequencing errors", "in_short": "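A nanobody's polyreactivity label depends on the gate it was sorted from. Yeast display cells were stained with 10% biotinylated, detergent-solubilized Sf9 membrane reagent for 1 hour at 4 °C, enriched on streptavidin microbeads and sorted by FACS. The low and high (top ~1%) gates were set on anti-HA fluorescence for expression and streptavidin fluorescence for reagent binding.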", "values": [{"sequence": "QVQIVESGGGLVQAGGSLRLSCAASGSTFPSYAMGWYRQATGKEREWVAAITRSCGRTYYADSVKGRFTISRDNSKHTVYLQMNSLKPEDTAVYYCAADLGSNYDYWGQGTQVTVLS", "polyreactivity (PSR sort gate)": "low polyreactivity"}, {"sequence": "QVQIVESGGGLVQAGGSLRLSCAASGSTFYEYAMGWYRQAPGKERELVATITSGGRTYYADSVKGRFTISRDNAKNTVYLQMNSLKPEDTAVYYCAAAGKGRFHFRSTMDYWGQGSQVTVSS", "polyreactivity (PSR sort gate)": "high polyreactivity"}, {"sequence": "QVQIVESGGGLVQAGGSLRLSCAASGSTLSYYGMGWYRQAPGKERELVAAISTGGRTYYADSVKGRFSISRDNATNTVFLQMTSLKPEDTAVYYCNALYVSYVSRYDYWGQGTQVTVSS", "polyreactivity (PSR sort gate)": "high polyreactivity"}, {"sequence": "QVQIVESGGGLVQAGGSLRLSCAASVFTFGENAMGWYRQAPGKERELVAAITSGDGTSYADSVKGRFTISRDNAKYTVYLQMNSLKPEDTSVYYCAADVGDELYYSTYDYWGQGTQVTVSS", "polyreactivity (PSR sort gate)": "low polyreactivity"}, {"sequence": "QVQIVESGGGLVQAGGSLRLSCAAYGRTFSYYTMGWYRQAPGKERELVARISNRGTNTYYADSEKGRFTISRDNAKNTVYLQMNSLKPEDPAVYYCAKYYSTSIVGYDSWGQGTQVTVSS", "polyreactivity (PSR sort gate)": "low polyreactivity"}, {"sequence": "QVQIVESGGGLVQAGGSLRLSCASSGIIFWPNAMGWYRQAPGKERELVASITSGGYTYYADYVKGRFTISRDNAKNTVYLQMNSLKPEDTAVYYCAAEWYPYGPKRYYWGQGTQVTVSS", "polyreactivity (PSR sort gate)": "low polyreactivity"}, {"sequence": "QVQIVESGGGLVQAGGSLRLSCASSGSTSYRNAMGWYRQAPGKEREFVASISKSTDSTYYADSVKGRFTISRDNAKNTVYLQMLSLKPEDTAVSYCADVQGYKGLQDDSWGQGTQVTVSS", "polyreactivity (PSR sort gate)": "high polyreactivity"}, {"sequence": "QVQIVESGGGLVQAGGSLRLSCDASGFIFYYYAMGWYRQAPGKERELVATITSGGGSTYYADSVKGRFTISRDNAKNTVYLQMNSLKPEDTAVYYCAAKGPYYKSSRTGDYWGQGTQVTVSS", "polyreactivity (PSR sort gate)": "low polyreactivity"}, {"sequence": "QVQIVESGGGLVQAGGSLRLSCDASGSIFNYNAMGWYRQAPGKEREFVAAINQGGTSTYYADSVKGRFTISRDNAKNTVYLQINSLKPEDTAVYYCAALITVYRGSYEYWGQGTQVTVSS", "polyreactivity (PSR sort gate)": "low polyreactivity"}, {"sequence": "QVQIVESGGGLVQAGGSLRLSFAASGSTFVLYAMGWYRPAPGKERELVAAISGGATTTYADSVKGRFTISRDNAKNSVYLQMNSLKPEDTAVYYCAADFYTFVVSGAAMDYWGQGTQVTVSS", "polyreactivity (PSR sort gate)": "low polyreactivity"}, {"sequence": "QVQIVESGGGLVQAGGSLRLTCAASGFTFTDYAMGWYRQAPGIERELVAVITYDSTYYADSVKGRFTISRDNAKNTVSLHMNSLKPEDTAVYYCAADSYDWGEFDYWGQGTQVTVSS", "polyreactivity (PSR sort gate)": "low polyreactivity"}, {"sequence": "QVQIVESGGGLVQAGGSLRLTCAASGSILWYNTMGWYRQAPGKERELVAAIRTSGSRTYYADSVKGRFTISRDNAKNTVYVQMNSLKPEDTAVYYCAAERGSQRVRSGYWGQGTQVTVSS", "polyreactivity (PSR sort gate)": "high polyreactivity"}, {"sequence": "QVQIVESGGGLVQAGGSLRVSCAASGRTFRLYAMGWYRQAPGKERELVAAITRGGRTNYADSVKGRFTISRDNAKYTVYLHMNSLKPEDTAVYYCAARYVERHTDYYYWGQGSQVTVSS", "polyreactivity (PSR sort gate)": "low polyreactivity"}, {"sequence": "QVQIVESGGGLVQAGGSLRVSCAPSGRTFLPYGMGWYRQAPGKEWELVASITSGGSTNYADSVKGRFTISRDNAQNTVYLQMNSLKPEDTAVYYCNKQTIPEWPWVKYSNGYDHWGHGTQVTVSS", "polyreactivity (PSR sort gate)": "low polyreactivity"}, {"sequence": "QVQIVESGGGLVQAGGSLSLSCAASGFTLVGYAMGWYRQAPGKERELVAAISSGGRTKYADSVKGRFTISRDNAKNTVYLQMNSLKPEVTAVFYCAAPYNVRWRYGYWGQGTQVTVSS", "polyreactivity (PSR sort gate)": "high polyreactivity"}, {"sequence": "QVQIVESGGGLVQAGGSLSLSCAASGRTFQRNAMGWYRQAPGKERELVAAITTGSRTYYADSVKGRFTISRDNAKNTVYLQMNSLKPEDTAVYYCAAVATRRDYGYWGQGTQVTVLS", "polyreactivity (PSR sort gate)": "high polyreactivity"}, {"sequence": "QVQIVESGGGLVQAGRSLRLSCAASGIIFDHYAMGWYRQAPGKERELVAAITTGGGNTYYADSVKGRFTISRDNAKNTVYLQMNCLKPEDTAVYYCNDDGLWGRRWGDYYGYDYWGQGTQVTVSS", "polyreactivity (PSR sort gate)": "low polyreactivity"}, {"sequence": "QVQIVESGGGLVQAGVSLRLSCAPSGFIFSVYAMGWYRQAPGKEMELVAGITRNGGITYYADSVKWRFTISRDNAKNTVYLQMNSLKPEDSAVYYCAAQAPKRRPFYGYYWGQGTQVTVSS", "polyreactivity (PSR sort gate)": "high polyreactivity"}, {"sequence": "QVQIVESGGGLVQEGGSLRISCAASGFTFTANAMGWYRQAPGKERELVAAITRNGGRTYYADSVKGRFTISRDNAKNTVYFQMNSLKPEDTAVYYCAKPTSQRIHDDYDYWGQGTQVTVSS", "polyreactivity (PSR sort gate)": "high polyreactivity"}, {"sequence": "QVQIVESGGGLVQEGGSLRLSFAASGSTFYYYPMGWYRQAPGKERELVAAITSGDTTNYADSVKGRFTISRDNAKNTVYLQMNSLKPEDTAVYYCAVDLNTTAFYPVAATYLDDYWGQGTQVTVSS", "polyreactivity (PSR sort gate)": "low polyreactivity"}, {"sequence": "QVQIVESGGRLDQAGGILRLSCAASGRTFTVNAMGWNRQAPGKERELVATIRSGGTTNYAASVKGRFTISRDNAKNTVYLTMNRLKPEDTAVYYCNARVLTRTSVVRYYYWGQGTQVTVSS", "polyreactivity (PSR sort gate)": "high polyreactivity"}, {"sequence": "QVQIVESGGRLVQAAGRLSLTCAASGSIFVWNAMGWYRQEPGKEREVVAAITNIGGRTYYADSVKGRFTISRDNAKYTVYLQMNSQKPEATAGYYCNSDLVSRLGWSTTSDSWGQGTQVTVSS", "polyreactivity (PSR sort gate)": "high polyreactivity"}, {"sequence": "QVQIVESGGVLDHAGGSLRLSCAATVGTSIPNAMGWYRQAPGKERELVAAITRSGGRTYYADSVKGRFTISRDNATNTVYLQMNSLKREDTAVYYCAARVRTTSVRGRYDYWGQGTQVTVSS", "polyreactivity (PSR sort gate)": "high polyreactivity"}, {"sequence": "QVQIVESGGVLVQAGGSLRLSCAASGSITYFNAMGWYRQAPGKERELVAAISYSGGSTYYADSVKGRFTISRDNAKNTVYLQMNSLKPEDTAVYYCAADRLIGWRKTYYYWGQGTQVTVSS", "polyreactivity (PSR sort gate)": "high polyreactivity"}, {"sequence": "QVQIVESGRGLVQAGGSLRLSCAASGSTFKYYAMGWYIQAPGKERELVAAISWTGGSTYYADSVKGRFTISRDNAKNTVYLQMNSLKPEDTAVYYCNALGHVQGYDYWGQGTQVTVSS", "polyreactivity (PSR sort gate)": "high polyreactivity"}, {"sequence": "QVQIVESGRGLVQAGGSLRLSCASSGFTFVSYAMGWYRQAPGKERELDASISKRGGTTYYADSVKGRFTISRDNAKNTVYLQMNSLKPEDTAVYYCYARDTRRYVTYDSGYDYWGQGTQVTVSS", "polyreactivity (PSR sort gate)": "high polyreactivity"}, {"sequence": "QVQIVESRGCLVQAGGSLRLICAASGSIFLANAMGWYRQAPRKEREFVPAITSSGGSTYYADSVKGRFTISRDNAKNSVYLQMNSLKPEDTAVYYCNVRPRYRWRSTPYGYWGQGTQVTVSS", "polyreactivity (PSR sort gate)": "high polyreactivity"}, {"sequence": "QVQIVESRGGIVQAGGSLRLRCAASGSTFAGNAMGWYRQPPGKERELVAAITSSGGTTYYADSVKGRFTISRDNEKNTVYLQMNSLKPEDSAVYYCAAKSRRTRRSYYWGQGTQVNVSS", "polyreactivity (PSR sort gate)": "high polyreactivity"}, {"sequence": "QVQIVESRVGLVQAGGSLRLSCAAYGSIFYYNAMGWYRQAPGKERELVAAITSSGGSTYADSVKGRFTISRDNAKNTVYLQMNSLKQEDTAVYYCATVAHGLWSGSGYIYAYDYWGQGTQVSVSS", "polyreactivity (PSR sort gate)": "low polyreactivity"}, {"sequence": "QVQLAESGGGLVQAGGSLRLSCAASGSTFPRNPMGWYRQAPGKERELVATITSSGGGTYYADSVKGRFTISRDNAKITVYLQMNSLKPEDTAVYYCNADGPAGDAFDYWGQGTQVTVSS", "polyreactivity (PSR sort gate)": "low polyreactivity"}, {"sequence": "QVQLAESGGRLVQAGGRLRLSCAASGRTSTCYAMGWYRQPPGKERELVAAISYRGGSTYYADSVKGRFTISRDNAKNSVYLHLNSLKPEDTAVYYCAAKWYWRGDYWGQGTQVTVSS", "polyreactivity (PSR sort gate)": "high polyreactivity"}, {"sequence": "QVQLDESGGGLVQAGGSLRLSCAASGRTFGVYAMGWYRQAPGKERELVAAIRWSGGGTYYADSVKVRFTISRDNAKNTVYLQMNSLKPEDTAVYYCAATLENSPYTRYTDMYYWGQGTQVTVSS", "polyreactivity (PSR sort gate)": "low polyreactivity"}]}]}
